From patent US20140010832A1 (EPFL TTO, published 2014)

B1: human BMP-2-PlGF2123-144* (ligand)
chain: QAKHKQRKRLKSSCKRHPLYVDFSDVGWNDWIVAPPGYHAFYCHGECPFPLADHLNSTNHAIVQTLVNSVNSKIPKACCVPTELSAISMLYLDENEKVVLKNYQDMVVEGCGCRRRPKGRGKRRREKQRPTDSHL
notes: Inserted at the C-terminus of BMP-2
B2: human VEGF-A121-PlGF2123-144 (ligand)
chain: APMAEGGGQNHHEVVKFMDVYQRSYCHPIETLVDIFQEYPDEIEYIFKPSCVPLMRCGGCCNDEGLECVPTEESNITMQIMRIKPHQGQHIGEMSFLQHNKCECRPKKDRARQERRRPKGRGKRRREKQRPTDCHLCDKPRR
B3: human PDGF-BB-PlGF2123-144 (ligand)
chain: SLGSLTIAEPAMIAECKTRTEVFEISRRLIDRTNANFLVWPPCVEVQRCSGCCNNRNVQCRPTQVQLRPVQVRKIEIVRKKPIFKKATVTLEDHLACKCETVAAARPVTRRRPKGRGKRRREKQRPTDCHL
B4: PlGF2 (ligand)
chain: PAVPPQQWALSAGNGSSEVEVVPFQEVWGRSYCRALERLVDVVSEYPSEVEHMFSPSCVSLLRCTGCCGDENLHCVPVETANVTMQLLKIRSGDRPSYVELTFSQHVRCECRPLREKMKPERRRPKRGKRRREKQRPTDCHLCGDAVPRR
notes: also called PIGF-2; placenta growth factor 2

What follows are binders tested against Collagen I (assay: ELISA; cytokine coated, ECM protein 0.02 to 320 nM, KD by non-linear fit).
Chain of Collagen I (P02452 162-1218, chain 1 of 2): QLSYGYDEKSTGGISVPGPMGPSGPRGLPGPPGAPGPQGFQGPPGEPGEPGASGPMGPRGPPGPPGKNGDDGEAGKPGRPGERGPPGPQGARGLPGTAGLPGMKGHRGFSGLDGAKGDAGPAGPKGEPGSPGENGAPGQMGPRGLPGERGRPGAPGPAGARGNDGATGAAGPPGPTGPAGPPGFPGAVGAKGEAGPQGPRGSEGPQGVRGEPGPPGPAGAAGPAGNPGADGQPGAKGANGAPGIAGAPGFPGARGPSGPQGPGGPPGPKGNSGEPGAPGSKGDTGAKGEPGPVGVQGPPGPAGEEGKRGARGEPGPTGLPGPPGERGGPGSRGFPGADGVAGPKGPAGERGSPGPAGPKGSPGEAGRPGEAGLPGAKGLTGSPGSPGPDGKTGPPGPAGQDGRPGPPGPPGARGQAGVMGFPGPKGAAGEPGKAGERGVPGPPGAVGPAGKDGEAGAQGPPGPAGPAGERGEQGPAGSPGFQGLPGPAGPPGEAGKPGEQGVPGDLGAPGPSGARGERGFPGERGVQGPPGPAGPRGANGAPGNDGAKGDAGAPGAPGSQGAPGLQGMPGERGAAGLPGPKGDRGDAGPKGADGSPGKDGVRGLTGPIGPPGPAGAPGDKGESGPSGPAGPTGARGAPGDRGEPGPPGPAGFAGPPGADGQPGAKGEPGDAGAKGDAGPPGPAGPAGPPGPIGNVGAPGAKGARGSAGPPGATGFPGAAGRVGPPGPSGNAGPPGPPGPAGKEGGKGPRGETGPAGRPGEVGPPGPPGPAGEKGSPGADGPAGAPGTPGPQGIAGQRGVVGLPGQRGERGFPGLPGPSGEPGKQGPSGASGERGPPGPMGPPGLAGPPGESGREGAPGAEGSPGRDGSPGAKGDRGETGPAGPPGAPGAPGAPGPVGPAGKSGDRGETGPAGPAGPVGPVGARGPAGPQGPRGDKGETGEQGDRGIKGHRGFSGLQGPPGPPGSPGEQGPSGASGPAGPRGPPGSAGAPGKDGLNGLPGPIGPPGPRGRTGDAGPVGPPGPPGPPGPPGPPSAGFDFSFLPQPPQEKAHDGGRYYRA
Chain of Collagen I (P08123 80-1119, chain 2 of 2, further chain): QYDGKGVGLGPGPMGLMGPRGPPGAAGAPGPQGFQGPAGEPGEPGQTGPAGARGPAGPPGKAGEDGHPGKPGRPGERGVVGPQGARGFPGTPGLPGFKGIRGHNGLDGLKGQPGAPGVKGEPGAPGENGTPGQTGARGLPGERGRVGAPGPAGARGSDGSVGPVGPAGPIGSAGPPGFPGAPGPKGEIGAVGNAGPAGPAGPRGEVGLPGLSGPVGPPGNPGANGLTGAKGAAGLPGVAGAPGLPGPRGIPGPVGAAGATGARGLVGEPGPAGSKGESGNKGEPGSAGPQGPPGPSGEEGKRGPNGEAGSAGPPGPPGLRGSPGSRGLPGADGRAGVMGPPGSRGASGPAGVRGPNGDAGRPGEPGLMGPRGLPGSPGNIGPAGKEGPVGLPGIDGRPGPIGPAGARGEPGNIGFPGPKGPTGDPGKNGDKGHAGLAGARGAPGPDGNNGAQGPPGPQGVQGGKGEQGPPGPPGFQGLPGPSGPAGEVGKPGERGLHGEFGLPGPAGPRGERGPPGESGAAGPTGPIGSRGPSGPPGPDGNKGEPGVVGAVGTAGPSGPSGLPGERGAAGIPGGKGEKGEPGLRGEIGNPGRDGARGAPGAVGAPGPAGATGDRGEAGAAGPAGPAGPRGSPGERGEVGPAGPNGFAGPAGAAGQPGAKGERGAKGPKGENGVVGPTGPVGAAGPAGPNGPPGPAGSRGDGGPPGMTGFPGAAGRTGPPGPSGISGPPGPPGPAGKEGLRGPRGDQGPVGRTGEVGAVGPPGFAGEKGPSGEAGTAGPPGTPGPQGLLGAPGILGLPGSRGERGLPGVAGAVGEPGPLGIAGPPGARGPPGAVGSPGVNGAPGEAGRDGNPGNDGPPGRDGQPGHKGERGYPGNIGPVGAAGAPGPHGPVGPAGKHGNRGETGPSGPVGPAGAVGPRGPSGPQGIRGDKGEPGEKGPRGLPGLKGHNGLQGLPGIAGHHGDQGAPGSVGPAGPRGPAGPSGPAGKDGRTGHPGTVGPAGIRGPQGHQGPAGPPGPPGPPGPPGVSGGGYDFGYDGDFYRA
Work on B1 yielded a Kd of 102 nM. B2 was tested, and the Kd was 124 nM. Binder B3 has a Kd of 96.3 nM. For B4, the Kd was 126 nM.
